Measurements as given in the nanobody polyreactivity screen of Harvey et al. (2022).

Assay: yeast display, Sf9 membrane polyspecificity reagent, FACS + sequencing; frameworks hold sequencing errors
Outline: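 Nanobodies came from a synthetic yeast display library in Saccharomyces cerevisiae BJ5465, induced with galactose for 36–48 hours and stained for 1 hour at 4 °C with 10% biotinylated, detergent-solubilized Sf9 membrane reagent. Cells were enriched on streptavidin microbeads and then FACS-sorted, with low and high (top ~1%) gates set on anti-HA fluorescence for expression and streptavidin fluorescence for reagent binding. Each polyreactivity label reflects the gate a clone came from. Genes were amplified by colony PCR, sequenced by MiSeq 2 × 250 and filtered by CDR length.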

Sequence	polyreactivity (PSR sort gate)
QVQLVESGGGLVQAGGSLRLSCAASGLIFRYYAKGWYRQAPGKERELFAAISLRGGSTYYADSVKGRFTISRDNAKNNVYLQMNSLKPEDTAVYYCAAQWASFSVANLYGYWGQGTQVTVSS	high polyreactivity
QVQLVESGGGLVQAGGSLRLSCAASGSILGFNAMGWYRQPPGKERELVAAIRWSGDSTYADSVKGRFTISRDNAKNSVYLQMNSLKPEDTAVYYCNAVTTYGYWYKYDYWGQGTQVTVSS	low polyreactivity
QVQLQESGGGLVQAGGSLRQSYAASGYIFPSLAMGWYRQAPGKEREFVAAIGRGSTNNYADSVKGRFTISRDNAKNTAYQQMISLKPEDTAVYYCAAAASPLTRHLYWGQGTQVSVSS	low polyreactivity
QVQLVESGGGLVQAGGSLRLSCAASVSIFVRNAMGWYRPAPGKERELGAADSVKGRFTISRDNAKNTVYLQMNSLKPEDTAVYYCAADEWIVHDGYYSSYYYWGQGTQVTVSS	low polyreactivity
QVQLVESGGGLVQAGGSLRLSCAASGLIFADYTMGWYRQAPGKERELVAVITDGDSTYYADSVKGRFTISLDNAKNTVYLQMNTLKPEDTAVSYCAAESAGSFLDYYWAYGYWGQGTQVTVSS	low polyreactivity
QVQLVESGGGLVQAGGSLRLRCAASGYTLGPYAMGWYRPAPGKQRELVAAISWGGGRTYYADSVKGRFTISRDNAKNTVYLLMNSLKPEDTAVYYCAAKWSLVRDGPKYDYWGQGTQVTVSS	low polyreactivity
QVQLVESGGGLVQAGGTLRLSCAASGSIFGSYAMGWYRQAPGKERELVAAISGSGGRTYYADSVKGRFTISRDNAKNTVYVQMNSLKPEDTAVYYCAAAYPRVTYKYGYYWGQGTHVTVSS	high polyreactivity
QVQLVESGGGLVQAGGSLRLSCSASGRTNWLNAMGLYRQAPGKERELVATISSSSGSTTYADSVKGRFTISRDNAKNTVYLQMNSLKPEDTAVYYCNVDDPFYSGVVEFDYWGQGTQVTVSS	low polyreactivity
QVQLVESGGGLVQAGGSLRLSCAASGSTFRVYAMGWYRQAPGKERELVAAISWSGGRTYYADSVKGRFTISGDNAKNTVYLQMNSLKTEDTAVYYCAADTYGRYDYWGQGTQVTVSS	high polyreactivity
QVQLVESGGGLVQAGGSLRLSCAASGSIFYKYVMGWYRQAPGKERELVAAISRGGGSTYYADSVKGRFTISRDNAKNSVYLQMNSLKPEDTAVYYCNAVGRPRYGHGFDHWGQGTQETVSS	high polyreactivity
QVQLVESGGGLVQAGGSLRLSCAASGFTFDENAMGWSRQAPGINYSRASTYYADSVKGRFTISRDNAKNTVYLQMISLKPEDTAVYYCNKASYWGSGFDYWGQGTQVTVSS	low polyreactivity
QVQLVESGGGLVQAGGSLRLSCAASGRISGYKVMGWYRQAPGKERELVAAISGSGGSTYYADSVKGRFTISRDNAKNTVYLQMNSLKPEDTAVYYCAKATAYPYDYWGQGTQVTVSS	low polyreactivity
QVQLVESGGGLVQAGGSLRLSCAASGINLRRYAMGWYRQAPGKERELVARISYRGGRTNYADSVKGRFTISRDNAKNTVYLQMNSLKPEDTAVYYCAAVAWYYHEGTAYNYWGQGTQVTVSS	high polyreactivity
QVQLVESGVGLVQAGGSLRLSCAASGFTFYPYAMGWYRQAPGKERELVASITNGGSTNYADSVKGRFTISRDNAKNTVYLQMNSLKPEDTAVYYCTAAYGFYASRYWYASYDYWGQGTQVTVSS	low polyreactivity
QVQLVESGGGLVQAGGSLRLSCAASGRIFPYYAMGWYRQAPGKERELVATISTAGSTNYADSVKGRFTISRDNAKNTVYLQMNSLKPEDTAVYYCATRNTWYHRGYDYWGQGTQVTVSS	low polyreactivity
QVQLVESGGGLVQAGGSLRLSCAASGFTFRNYAMGWYRQAPGKERELVAAISKRGGNTYYADSVKGRFTISRDNAKNTVYLQMNSLKPEDTAVYYCARKYFRTSNLYGYWGQGTQVTVSS	high polyreactivity
QVQLVESGGGLVQAGGSLRLSCAASGLTFKLYVMGWYRQAPGKERELVAAISGGGSTYYADSVKGRFTISRDNAKNTVYLQMNSLKPEDTAVYYCAAVRYFEYEYWGQGTQVTVSS	low polyreactivity
QVQLLESGGGLVQAGGSLRLSCAASGFNFYYYAMGWYRQAPGKERELVAAISKSGGSTHYADSVKGRFTISRDNAKHTVYLQMNSLKPEDTAVYYCAARYILSKYGSGVRYNYWGQGTQVTVSS	high polyreactivity
QVQLVESGGGLVQAGGSLRLSCAASGSIFVNYAMGWYRQAPGKERELVAAISRSGGRTYYADSVKGRFTISRDNAKNTVYLQMNSLKPEDTAVYDCNVYPVLRTIEGDYWGQGTQVTVSS	high polyreactivity
QVQLVESGGGLVQAGGSLRLSCAASGNIFYSYAMGWYRQAPGKERELVAAISSSGGRTYYADSVKGRFTISRDNAKNTVYLQMNSLKPEDTAVYYCNAYVQVLRYVFGRPTVYPYDYWGQGTQVTVSS	high polyreactivity
QVQLVESGGGLVQAGGSLRLSCAASGRILAGYAMGWYRQAPGKERELVAAITRGGTTYYADSVKGRFTISRDNAKYTVYLQMNSLKPEDTAVVYTVSSAQYDYWGQGTQVTVSS	low polyreactivity
QVHLVESGGGLVQAGGSLRLSCDASGRTFFPYGMGWYRQAPGKQRELVATISWSGGSTHYADSVKGRFTISRDNAKNTVYLQMNSLKPEDNAVYYCNKTSFLVKLDYWGQVTQVTVSS	high polyreactivity

Sequence	polyreactivity (PSR sort gate)
QVQLVESGGGLVQAGGSLRLSCAASGFILSPYAMGWYRQAPGKERELGAVITISGGSTYYADSVKGRFTISRDNAKNTVYLQMNSLKPEDTAVYYCAADYYDLVYDYYYWGQGTQVTVSS	high polyreactivity
QVQLVESGGGLVQAGGSLRLSCAASGSIFAYNAMGWYRQAPGKERELVATINWIGGRTYYADSVKGRFTISRDNAKNTVYLQMNSLKPEDTAVYYCAKERWYLGVSNGHVLVDYDHWGQGTQVTVSS	low polyreactivity
QVQLVETGGGLVQAGGSLRLSSAASGRTFYRYAMGWYRQAPGKDRELVATISRSGANTYADSVKGRFTISRDNAKNTVYLQMNSLKPEDTAVYYCNAGQYKGWGRMDYWGQGTQVTVSS	high polyreactivity
QVQLVESGGGLVQAGGSLRLSCAASGRIFRDYGMGWYRQAPGKERELVAAINTSGRTYYADSVKGRFTISRDNAKNTVYLQMNSLKPEDTAVYYCATTSRELGELRIFDYWGQGSQVTVSS	low polyreactivity
QVQLVESGGGLVQAGGSLRLSCAASGSILSHNAMGWYRQAPGKERELVAAITTSGSTTYADSVKGRFTISRDNAKNTVYLQMNSLKPEDTAVYYCNARPDSWSDTAQNRYDYWGQGTQVTVSS	low polyreactivity
QVQLVESGGGLVQAGGSLRLSCAASGITFRWYAMGWYRQAPGKERELVASISSGGITTYADSVKGRFTISRDNAKNTVYLQMNSLKPEDTAVDYCNAVGHTSIRRALDILDYWGQGTQVTVSS	high polyreactivity
QVQLVESGGGLVQAGGSLRLSCAASGYTFNRYAMGWYRQAPGKERELVAAITRGGTTYYADSVKGRFTISRDNAKNTVYLQMNSLKPEDTAVYYCNKFQPSGQYFKMGYWGQGTQVTVSS	high polyreactivity
QVKLVESAGGLVQAGGSLRLSCAASGRTFVGNAMGWYRQEPGKEREVVAAITSRTGSTYYADSVKGRFTISRDNAKNTGYLQMNSLKPEDTAVYYGATPYYQIVYSRKAYNFWGQGTQVTVSS	high polyreactivity
QVQLVESGGGLVQAGGSLRLSCAASGFTFRWYAMGWYRQAPGKERELVAAISTTGGSTYYADSVKGRFTISRDNAKNTVYFQLNSLKPEDTAVYYCNVYSGRYWESHKFDSWGQGTQVTVSS	high polyreactivity
QVQLVESGGGIVQAGGSLRLSCAASGRIFGTYGMGWYRQAPGKERELVAAISGGGSTNYADSVKGRFTISRDNAKNTVYLQMNSLKPEDTAVYYCAARYPPYRSWYSYDYWGHGTQVTVSS	low polyreactivity
QVQLQDSGGVMVLACGSLRLSCAESGYISWSFTMGWYRKAPGKEREFVAGITYGGITYYADSVKGRFTISRDNAKNSVYLQMNRLKPEDTAVYYCAAPQSYPYVYVYWGHGTQVTVSS	high polyreactivity
QVQLVESGGGLVQAGGSLRLSCAASGLIFSPYAMGWYRQAPGKERELVAAISWRGGRTSYADSVKGRFTISRDNAKNTVYLQMNSLKPEDTAVYYCATRNSSKRRGYYYWGQGTQVTVSS	high polyreactivity
QVQLVESGGGLVQAGGSLRLSCAASGRTFQRNAMGWYIQAPGKERELVATITTNGGSTYYADSVKGRFTISRDNAKNTVYLQMNSLKPEDTAVYYCAAPFNPRVRTLRSVRMDYWGQGTQVTVSS	low polyreactivity
QVQLVESGGGLVQAGGSLRLSCAASACTFNVNAMGWYRQEAGKERELVAAITNGGITNYADSVKGRFTISRDNAKNTVYLQMNSLKPEDTAVYDCAARTIYKTQSPRPFRRGYWGQGTQVTVSS	high polyreactivity
QVQLVESGGGLVQAGGSLRLSCAASGIIFDGYAMGWYRQAPGKEREFVAAITSGGGSTSYADSVKGRFTISRDNAKNTVYLQMNSLKPEDTAVYSCAARSNRFYVRQRYGYWGQGTQVTVSS	high polyreactivity
QVQLVESVGGLFQAGGSLRLSCDASGFTFTAYAMGWYIQAPGKERELVAAINWSGSRTYYADSVKGRFTISRDNAKNTVYLQMNSLKPEDTAVYYCNTATSKSSYRHYDYWGQGTQVTVSS	high polyreactivity
QVQLVESGGGLVQAGGSLRLSCAASGSIFTSYAMGWYRQAPGKERELVAGISWSVGGITYYADSVKGRFTISRDNAKNTVYLQMNSLKPEDTAVYYCAADPEGGLGTIPEDYWGQGTQVTVSS	low polyreactivity
QVHLVESGGCLVQAGGTLRLSCAASGFTYKWYAMGWYRQAPGKERELVATITIGGRTNYADSVKGRFTISRDNAKNTVYLQMNSLKTEETAVYYCATYFVGLRLSDYDYWGQGTQVTVSS	low polyreactivity
QVQLVESGGGLVQAGGSLRLSSAASGSILPYYAMGWYRQAPGKESELVATITSRGGSTYYADSVKGRFTISRDNAKNTVYLQMNSLKPEDTAVYYCAKEYRYYRRRYDYCGQGTQVTVSS	high polyreactivity
QVQLVESCVGLVQAGGSLRLSCAASRSTFDSYAMGWYRQAPGNEREMVASITSRGGRTYYADSVKGRFSISRDNAMNTVYLEMNSLKPEDTAVYYCNAYRRKYYYYQRHGFWGQGTQVTVSS	high polyreactivity
QVQLVESGGGLVQAGGSLRLSCAASGSTFGYNAMGWYRQAPGKERELVAAISYSGGSTSYADSVKGRFTISRDNAKNIVYLQMNSLKPEDTAVYYCARDSYSQYSSQALEGYGYWGQGTQVTVSS	low polyreactivity
